Reference: article PMC7081238, “BrtB is an O-alkylating enzyme that generates fatty acid-bartoloside esters” (Nature Communications, 2020)

Substrate: C#CCCCCC(=O)O
Experiment: purified protein
Assay type: biochemical, Synechocystis salina
Details: co-substrate bartoloside G (5) 100 μM, 20 mM HEPES, 50 mM NaCl, 10 mM MgCl2, 5 mM CaCl2, pH 8.0, 37 °C, standard error, n = 3

B1: NStrep-BrtB (Synechocystis salina LEGE 06099) (protein)
chain: MANPFDVALTNLNSLYSGIPDVPVLQTYNSLNPYDISLTNLNNLSNFVIEPAVLPTAAGTYGPQISEIAFALGGGIITGALADLLSTELGIEIENEALITKFLSFWTPGSDYAFGQDYVEFIQGREGFDTIIGYDPGFNSALAPVQIDFVLGGPRQDFNFFAPLDEPARYVLGDWRTPYYVDNDIQSEGLNEFMYVSLFTLNPDEFSPDNAENHRIQLYGSLDNYYFVPTTVVIDGSALDPSLPSIPVPGTEIYYKTGQVFADLIAIVPFQDPNDPNLISAWIDFEGYLPPEQADLSGQTANPLLSGSPLLQLGYEGIDMGTATALAPDGDIYVAGSTSSLLGPFPRGGSDNFIARYNDDGSLEWIVQFGSTEFDIITDIVSDSAGNVYATGWTRGNVETGFGLAPGVQDNWVAKFDANGSQLWVEQFTIDGYLDRSMGIALDEVNGRIHLTGHSNTDGSVADTNDPAIVPNGNVVTWIAGFDANTGAEDYRNVFEVAQTSNSRGRIDEGFGIDVDDAGNVFSTGWAGENAYDVYLVKSDTDGAVLWTKSFGTGSNATQSYAWDVASDGTNAYILGWTQGELNTFRDQIPPTDEFAGNATAPLTPQNAYQGGTFDAFVAAYDTDGTELWTWHVGGTGDDGTFFGKIVAAGDFVYATGYTDGFIGTLGGSNAGDYDAWIGKFDKLTGQTAWIQQIGSTKLDYATGISVDGDDIFVTGFTEGSLGGLNGGASDAWVAKLNQDGALEAFNVSAPIAPPAPFAPPAPLTPPAPPAPDLSSLQSLGSTPQPTYPALGDSYGTNPFGTQPTQPTYDLSSMYQNAYYGGFGGYSGYGY
notes: N-terminal Strep-Tag, pET-51b, E. coli BL21 (DE3) Rosetta; cloning primers imply N-terminus MANPF and C-terminus GYGY; two protein preparations pooled 1:1
B1 was tested, and the Km was 234 ± 41 µM.
